System: Arabidopsis thaliana T1 plants
Experiment: Topramezone tolerance of transgenic Arabidopsis thaliana T1 plants (pesticide damage grade by bleached leaf area, score, resistance evaluation)
Format: in vivo
Details: for Classification and statistics of pesticide damage grade Grade 0 / Classification and statistics of pesticide damage grade Grade 1 / Classification and statistics of pesticide damage grade Grade 2 / Classification and statistics of pesticide damage grade Grade 3 / Scores / Resistance evaluation: HPPDs from different species, 7 DAT; for Classification and statistics of pesticide damage grade Grade 0 / Classification and statistics of pesticide damage grade Grade 1 / Classification and statistics of pesticide damage grade Grade 2 / Classification and statistics of pesticide damage grade Grade 3: number of plants (of 16) in this grade; for Scores / score: score for pesticide damage 0-100; for Grade 0 / Grade 1 / Grade 2 / Grade 3 / score / Resistance Grade: non-372 position mutants; for Grade 0 / Grade 1 / Grade 2 / Grade 3: number of plants (of 20) in this grade
Summary of the method: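 Eighteen days after sowing, wild-type and HPPD-transgenic T1 Arabidopsis receive a topramezone spray at 1×, 2× or 4× field rate (25–100 g ai/ha) or water. Seven days later each plant is graded by its proportion of bleached leaf area.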

Row | Molecule | Classification and statistics of pesticide damage grade Grade 0 (topramezone 25 g ai/ha (1x)) | Classification and statistics of pesticide damage grade Grade 1 (topramezone 25 g ai/ha (1x)) | Classification and statistics of pesticide damage grade Grade 2 (topramezone 25 g ai/ha (1x)) | Classification and statistics of pesticide damage grade Grade 3 (topramezone 25 g ai/ha (1x)) | Classification and statistics of pesticide damage grade Grade 0 (topramezone 100 g ai/ha (4x)) | Classification and statistics of pesticide damage grade Grade 1 (topramezone 100 g ai/ha (4x)) | Classification and statistics of pesticide damage grade Grade 2 (topramezone 100 g ai/ha (4x)) | Classification and statistics of pesticide damage grade Grade 3 (topramezone 100 g ai/ha (4x)) | Scores (topramezone 25 g ai/ha (1x)) | Scores (topramezone 100 g ai/ha (4x)) | Resistance evaluation (topramezone 25 g ai/ha (1x)) | Resistance evaluation (topramezone 100 g ai/ha (4x)) | other results
1 | StHPPD-02: native Solanum tuberosum HPPD, SEQ ID NO: 123 (protein, listed as Solanum tuberosum, StHPPD Amino Acid Sequence) MGKQAATATATATATADDQQLPADIEDKYKLVGFNNFVRTNPRSDLFNVKRFHHIEFWCGDATNTARRFSWGLGLPIAAKSDLSTGNSVHASYLLRSSSSQLQFLFTAPYSPAISTPSSSSIPTFSVSSHRSFTETHGLGVRAIALEVENSRLAFSTCVSHGAKPVSEPVILNDEVVISEVHLYGDVVLRFVSFLKDSNRFVFLPGFELVEGAQLDYGIRRLDHAVGNVPQLGPVVEYIKSFTGFHEFAEFTAEDVGTAESGLNSVVLANNDETVLFPLNEPVYGTKRKSQIQTYLEHNEGAGVQHLALVTEDIFRTLREMRKRSGIGGFEFMPSPPPTYYKNLKSRAGDILSDEQIKECEELGILVDRDDQGTLLQIFTKPVGDRPTIFLEIIQRIGCMLQNAEGELYQKGGCGGFGKGNFSELFKSIEEYEKTLEAKQNTQVAIA | 0 | 0 | 0 | 16 | 0 | 0 | 0 | 16 | 100 | 100 | non-resistant (non-resistant plants (scores 68-100)) | non-resistant (non-resistant plants (scores 68-100)) | 
2 | AsHPPDm-F415A: Avena sativa HPPD mutant F415A, SEQ ID NO: 424 (protein, AsHPPDm-F415A Amino Acid Sequence) MPPTPATATGAAAAAVTPEHAARSFPRVVRVNPRSDRFPVLSFHHVELWCADAASAAGRFSFALGAPLAARSDLSTGNSAHASLLLRSGALAFLFTAPYAPPPQEAATAAATASIPSFSADAARTFAAAHGLAVRSVGVRVADAAEAFRVSVAGGARPAFAPADLGHGFGLAEVELYGDVVLRFVSYPDETDLPFLPGFERVSSPGAVDYGLTRFDHVVGNVPEMAPVIDYMKGFLGFHEFAEFTAEDVGTTESGLNSVVLANNSEAVLLPLNEPVHGTKRRSQIQTYLEYHGGPGVQHIALASNDVLRTLREMRARTPMGGFEFMAPPQAKYYEGVRRIAGDVLSEEQIKECQELGVLVDRDDQGVLLQIFTKPVGDRPTFFLEMIQRIGCMEKDEVGQEYQKGGCGGFGKGNASELFKSIEDYEKSLEVKQSVVAQKS |  |  |  |  |  |  |  |  |  |  |  |  | tolerance to topramezone, in words (Arabidopsis thaliana T1 plants sprayed with topramezone): no significant difference; Grade 0 (topramezone 25 g ai/ha (1x)): 0; Grade 1 (topramezone 25 g ai/ha (1x)): 6; Grade 2 (topramezone 25 g ai/ha (1x)): 12; Grade 3 (topramezone 25 g ai/ha (1x)): 2; Grade 0 (topramezone 100 g ai/ha (4x)): 0; Grade 1 (topramezone 100 g ai/ha (4x)): 0; Grade 2 (topramezone 100 g ai/ha (4x)): 0; Grade 3 (topramezone 100 g ai/ha (4x)): 20; score (topramezone 25 g ai/ha (1x)): 60; score (topramezone 100 g ai/ha (4x)): 100; Resistance Grade (topramezone 25 g ai/ha (1x)): poorly resistant (poorly resistant plants (scores 34-67)); Resistance Grade (topramezone 100 g ai/ha (4x)): non-resistant (non-resistant plants (scores 68-100))
3 | CsHPPD-02: native Cucumis sativus HPPD, SEQ ID NO: 117 (protein, listed as Cucumis sativus, CsHPPD Amino Acid Sequence) MGKEADFPRAPSEATDGGATASQSEFELQGFDNFIRTNPKSDRFKVKRFHHIEFWCTDATNVARRFSWGLGMQIVAKSDLSTGNMTHASYLLRSGHLCFLFTAPYSPSIAAAQNLTPASTASIPSFDHSVCRSFSGTHGFGARAIALEVEDAEIAFRTSVAHGAKPSCPPIVLENRAVLSEVHLYGDVVLRYISYKNPVSGDNGENKPDEWFLPKFEAMEETASFPLDFGIRRLDHAVGNVPELGPAVSYLKGFTGFHEFAEFTAEDVGTSESGLNSMVLANNEEMVLLPINEPVFGTKRKSQIQTYLEHNEGAGVQHLALMSEDIFRTLREMRKRSSVGGFEFMPSPPPTYYKNLKSRAGDVLTDEQIKECEELGILVDKDDQGTLLQIFTKPVGDRPTIFIEIIQRLGCMMKDEEGKAFQKGGCGGFGKGNFSELFKSIEEYEKTLEAKRVSE | 0 | 0 | 0 | 16 | 0 | 0 | 0 | 16 | 100 | 100 | non-resistant (non-resistant plants (scores 68-100)) | non-resistant (non-resistant plants (scores 68-100)) | 
4 | CsHPPDm-F372A-02: Cucumis sativus HPPD mutant F372A, SEQ ID NO: 120 (protein, CsHPPDm-F372A Amino Acid Sequence) MGKEADFPRAPSEATDGGATASQSEFELQGFDNFIRTNPKSDRFKVKRFHHIEFWCTDATNVARRFSWGLGMQIVAKSDLSTGNMTHASYLLRSGHLCFLFTAPYSPSIAAAQNLTPASTASIPSFDHSVCRSFSGTHGFGARAIALEVEDAEIAFRTSVAHGAKPSCPPIVLENRAVLSEVHLYGDVVLRYISYKNPVSGDNGENKPDEWFLPKFEAMEETASFPLDFGIRRLDHAVGNVPELGPAVSYLKGFTGFHEFAEFTAEDVGTSESGLNSMVLANNEEMVLLPINEPVFGTKRKSQIQTYLEHNEGAGVQHLALMSEDIFRTLREMRKRSSVGGFEFMPSPPPTYYKNLKSRAGDVLTDEQIKECEELGILVDKDDQGTLLQIATKPVGDRPTIFIEIIQRLGCMMKDEEGKAFQKGGCGGFGKGNFSELFKSIEEYEKTLEAKRVSE | 0 | 0 | 16 | 0 | 0 | 0 | 0 | 16 | 67 | 100 | poorly resistant (poorly resistant plants (scores 34-67)) | non-resistant (non-resistant plants (scores 68-100)) | 
5 | NtHPPDm-F372A-02: Nicotiana tabacum HPPD mutant F372A, SEQ ID NO: 114 (protein, NtHPPDm-F372A Amino Acid Sequence) MGKLETVTTTSAAAADDSSELTTNFKLVGFKNFIRTNPRSDFFSVKSFHHIEFWCGDATNTARRFSWSLGMPIAAKSDLSTGNSVHASYLLRPVSGSLQFLFTAPYSPSISTPSSAAIPSFSTSTHRSFTTTHGLGVRAVALEVENAYTAFSASVSRGAKPMFEPVTIDEQVAMAEVHLYGDVVLRFVSYLKDADNLVFLPGFEAMDETASYKELDYGIRRLDHAVGNVPELGPVVDYIKRFTGFHEFAEFTAEDVGTAESGLNSMVLANNDETVLLPLNEPVYGTKRKSQIQTYLEHNEGAGVQHLALVTEDIFKTLTEMRKRSGVGGFEFMPSPPPTYYKNLKNRAGDVLSDEQILACEELGILVDRDDQGTLLQIATKPVGDRPTIFIEIIQRIGCMLKDGKGQVYQKGGCGGFGKGNFSELFRSIEEYEKTLEAKQANQVAAA | 0 | 6 | 10 | 0 | 0 | 0 | 0 | 16 | 54 | 100 | poorly resistant (poorly resistant plants (scores 34-67)) | non-resistant (non-resistant plants (scores 68-100)) | 
